Measurements from US20260258137A1 (HARBOUR BIOMED SHANGHAI, published 2026).
Substitutions are numbered along the chain they refer to. In names and notes the source's numbering stands. Read-outs that look alike come from different tables or passages of the source. Blank lines part the entries; values can stand above or below the binder they belong to.

Assays:
[1] = biological target: T1, human PD-L1 on Hep3B cells co-expressing human PD-L1 and OS8 (human, UniProt Q9NZQ7 19-290); assay: cell-based or functional assay
[2] = biological target: T2, human PD-L1 on CHO-K1 cells (CHO-K1/hPD-L1, Nanjing Genscript, M00543) (human, UniProt Q9NZQ7 19-290); assay: flow cytometry on CHO-K1/hPD-L1 cells
T2 construct: whole, on cells; also called CHO-K1 cells overexpressing human PD-L1; human PD-L1 on the cell surface

[3] = biological target: T3, Human PD-L1 (Acrobiosystems, EP-101-96tests, A001-214) (human, UniProt Q9NZQ7 19-238); assay: competition ELISA: hPD-1-Biotin binding to coated hPD-L1
T3 construct: bought reagent; also called human PD-L1 protein

[4] = biological target: T4, Human PD-L1-hFc protein (Acrobiosystems, PD1-H5258) (human, UniProt Q9NZQ7 19-238); assay: competition ELISA: hB7-1-Biotin binding to coated hPD-L1-hFc
T4 construct: bought reagent; not shown: human Fc (hFc)

[5] = biological target: T2, human PD-L1 on CHO-K1 cells …; assay: flow cytometry competition: biotin-hPD-1 binding to CHO-K1/hPD-L1 cells
[6] = biological target: T5, Human PD-L1 (Acrobiosystems, PD1-H5229) (human, UniProt Q9NZQ7 19-238); assay: ELISA, coated human PD-L1
T5 construct: bought reagent; also called human PD-L1 protein

[7] = biological target: T1, human PD-L1 on Hep3B cells …; assay: cell-based or functional assay; remark: listed apart in the source
[8] = biological target: T6, cynomolgus PD-L1 on CHO-K1 cells (CHO-K1/cynoPD-L1, Nanjing Genscript, M00573) (cynomolgus, UniProt G7PSE7 19-290); assay: flow cytometry on CHO-K1/cynoPD-L1 cells
T6 construct: also called CHO-K1 cells overexpressing cynomolgus PD-L1

[9] = biological target: T2, human PD-L1 on CHO-K1 cells …; assay: flow cytometry competition: biotin-hPD-1 binding to CHO-K1/hPD-L1 cells; remark: listed apart in the source
[10] = biological target: T7, human PD-L1 protein with histidine tag (NovoProtein, C315) (human, UniProt Q9NZQ7 19-239, limits assumed, biotinylated with EZ-Link Sulfo-NHS-LC-Biotin in the epitope competition experiments (Examples 8 and 20); not biotinylated in the affinity experiments); assay: BLI (Octet), antibody on AHC sensor, antigen 60 nM, 1:1 local fit
T7 construct: bought reagent; also called biotinylated PD-L1 protein; not shown: histidine tag
T7 sequence (Q9NZQ7 19-239 limits assumed): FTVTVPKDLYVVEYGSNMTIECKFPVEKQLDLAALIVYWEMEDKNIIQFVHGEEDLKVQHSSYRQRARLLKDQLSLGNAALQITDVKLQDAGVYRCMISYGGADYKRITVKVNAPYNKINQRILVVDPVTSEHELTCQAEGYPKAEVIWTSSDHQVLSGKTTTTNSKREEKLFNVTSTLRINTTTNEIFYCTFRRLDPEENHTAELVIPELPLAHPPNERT

T6 sequence (G7PSE7 entry or part of it limits assumed, one chain of several): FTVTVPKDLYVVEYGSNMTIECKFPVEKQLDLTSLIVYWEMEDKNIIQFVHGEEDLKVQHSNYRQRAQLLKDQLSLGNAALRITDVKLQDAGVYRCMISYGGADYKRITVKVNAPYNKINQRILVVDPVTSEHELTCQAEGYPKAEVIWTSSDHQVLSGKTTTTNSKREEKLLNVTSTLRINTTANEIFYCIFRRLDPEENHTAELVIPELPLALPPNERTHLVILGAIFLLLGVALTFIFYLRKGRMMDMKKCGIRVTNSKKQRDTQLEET
T2 sequence (Q9NZQ7 19-290, one chain of several): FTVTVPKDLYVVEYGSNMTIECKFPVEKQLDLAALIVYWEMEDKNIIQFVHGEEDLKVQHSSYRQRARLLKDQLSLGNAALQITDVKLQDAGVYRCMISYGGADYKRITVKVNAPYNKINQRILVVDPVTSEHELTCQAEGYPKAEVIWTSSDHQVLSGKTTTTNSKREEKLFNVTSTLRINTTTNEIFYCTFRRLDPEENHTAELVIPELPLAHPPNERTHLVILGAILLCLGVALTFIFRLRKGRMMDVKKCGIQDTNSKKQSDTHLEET
T1 sequence (Q9NZQ7 19-290): as the sequence (Q9NZQ7 19-290, one chain of several) above
T5 sequence (Q9NZQ7 19-238 limits assumed): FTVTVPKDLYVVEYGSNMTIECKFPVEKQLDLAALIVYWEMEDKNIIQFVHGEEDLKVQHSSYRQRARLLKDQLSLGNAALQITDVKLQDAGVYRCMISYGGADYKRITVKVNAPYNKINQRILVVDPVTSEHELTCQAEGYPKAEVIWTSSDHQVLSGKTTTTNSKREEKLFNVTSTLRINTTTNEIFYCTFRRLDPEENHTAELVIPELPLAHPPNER
T4 sequence (Q9NZQ7 19-238 limits assumed): as above
T3 sequence (Q9NZQ7 19-238 limits assumed): as above

EC50 (nM), PD-1 / NFAT-luciferase reporter [1]: 0.682 nM
Maximum fluorescence value (RLU) [1]: 79800 RLU
EC50 [2]: 0.456 nM
MFI maximum value [2]: 7340 MFI
IC50 [3]: 0.333 nM
Maximum inhibition rate (%) [3]: 92.9%
IC50 [4]: 0.153 nM
Maximum inhibition rate (%) [4]: 36.9%
IC50 [5]: 0.894 nM
Maximum inhibition rate (%) [5]: 91.2%
B1: PR000067 (antibody, human IgG1, kappa, N297A, V domains shown)
VH: EVQLVESGGGLVQPGGSLRLSCAASGFTFSSYWMSWVRQAPGKGLEWVANIKQDGSEKYYVDSVKGRFTISRDNAKNSLYLQMNSLRAEDTAVYYCARDRAVAGAFDIWGQGTMVTVSS
VL: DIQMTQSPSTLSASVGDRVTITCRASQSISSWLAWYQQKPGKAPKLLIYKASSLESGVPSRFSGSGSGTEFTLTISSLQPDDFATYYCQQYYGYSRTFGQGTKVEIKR
notes: fully human recombinant antibody, human IgG1 heavy chain, kappa light chain (IGKV1-5); also called 73G3G9B11

EC50 (nM), PD-1 / NFAT-luciferase reporter [1]: 0.269 nM
Maximum fluorescence value (RLU) [1]: 82700 RLU
EC50 [6]: 0.0641 nM
EC50 [2]: 0.21 nM
MFI maximum value [2]: 7790 MFI
IC50 [3]: 0.2 nM
Maximum inhibition rate (%) [3]: 90.6%
IC50 [4]: 0.305 nM
Maximum inhibition rate (%) [4]: 39.9%
IC50 [5]: 0.449 nM
Maximum inhibition rate (%) [5]: 90.7%
B2: PR000070 (antibody, human IgG1, kappa, N297A, V domains shown)
VH: B1 VH
VL: DIQMTQSPSTLSASVGDRVTVTCRASQSIYIWLAWYQQKPGKAPNLLIYKASSLETGVPSRFSGSGSGTEFTLTISSLQPDDFATYYCQQYYGSSRTFGQGTKVEIKR
notes: fully human recombinant antibody, human IgG1 heavy chain, kappa light chain (IGKV1-5); also called 91G3H5H3

EC50 [2]: 0.412 nM
MFI maximum value [2]: 7660 MFI
IC50 [3]: 0.432 nM
Maximum inhibition rate (%) [3]: 99%
IC50 [4]: 0.312 nM
Maximum inhibition rate (%) [4]: 43.8%
B3: PR000065 (antibody, human IgG1, kappa, N297A, V domains shown)
VH: B1 VH
VL: B2 VL with V21I, Y30F
notes: fully human recombinant antibody, human IgG1 heavy chain, kappa light chain (IGKV1-5); also called 67C1F7G6

EC50 (nM), PD-1 / NFAT-luciferase reporter [1]: 0.293 nM
Maximum fluorescence value (RLU) [1]: 78000 RLU
EC50 [6]: 0.0474 nM
EC50 [2]: 0.292 nM
MFI maximum value [2]: 7630 MFI
IC50 [3]: 0.237 nM
Maximum inhibition rate (%) [3]: 89.8%
IC50 [4]: 0.253 nM
Maximum inhibition rate (%) [4]: 47.6%
IC50 [5]: 0.746 nM
Maximum inhibition rate (%) [5]: 92.5%
B4: PR000072 (antibody, human IgG1, kappa, N297A, V domains shown)
VH: B1 VH with V61G, D90E, F106S
VL: B2 VL with V21I, Y30S, I31S, S94Y
notes: fully human recombinant antibody, human IgG1 heavy chain, kappa light chain (IGKV1-5); also called 98E11H1C9

EC50 (nM), PD-1 / NFAT-luciferase reporter [7]: 0.759 nM
Maximum fluorescence value (RLU) [7]: 45500 RLU
EC50 [6]: 0.0412 nM
EC50 [8]: 0.759 nM
MFI maximum value [8]: 22200 MFI
IC50 [9]: 1.16 nM
Maximum inhibition rate (%) [9]: 91.3%
B5: PR000268 (antibody, human IgG1, kappa, N297A, V domains shown)
VH: B1 VH with G55A, V61G, D90E, F106S
VL: B2 VL with V21I, Y30S, I31S, S94Y
notes: heavy chain human IgG1 (N297A)

EC50 [6]: 0.0385 nM
B6: PR000261 (antibody, human IgG1, kappa, N297A, V domains shown)
VH: B1 VH with D54E, F106S, D107A, I108F
VL: B2 VL with D17H, V21I, Y30S, N45D
notes: PTM variant of PR000066 (H:D54E); heavy chain human IgG1 (N297A)

EC50 (nM), PD-1 / NFAT-luciferase reporter [1]: 2.71 nM
Maximum fluorescence value (RLU) [1]: 79700 RLU
EC50 [2]: 0.521 nM
MFI maximum value [2]: 6890 MFI
IC50 [3]: 0.448 nM
Maximum inhibition rate (%) [3]: 89%
IC50 [4]: 0.351 nM
Maximum inhibition rate (%) [4]: 37.5%
IC50 [5]: 0.987 nM
Maximum inhibition rate (%) [5]: 91.6%
B7: PR000071 (antibody, human IgG1, kappa, N297A, V domains shown)
VH: B1 VH with L79Q, F106S
VL: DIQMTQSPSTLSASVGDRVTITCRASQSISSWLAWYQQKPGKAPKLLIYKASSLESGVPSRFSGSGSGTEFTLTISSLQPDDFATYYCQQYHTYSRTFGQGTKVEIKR
notes: fully human recombinant antibody, human IgG1 heavy chain, kappa light chain (IGKV1-5); also called 95C7C4A9

EC50 (nM), PD-1 / NFAT-luciferase reporter [7]: 0.68 nM
Maximum fluorescence value (RLU) [7]: 48400 RLU
EC50 [6]: 0.0415 nM
EC50 [8]: 0.562 nM
MFI maximum value [8]: 22400 MFI
Kd [10]: 0.349 nM
koff [10]: 9.62e-05 s⁻¹
kon [10]: 276000 M⁻¹ s⁻¹
IC50 [9]: 0.838 nM
Maximum inhibition rate (%) [9]: 91.5%
B8: PR000266 (antibody, human IgG1, kappa, N297A, V domains shown)
VH: B1 VH with G55A
VL: B2 VL
notes: as for B5

EC50 (nM), PD-1 / NFAT-luciferase reporter [1]: 0.292 nM
Maximum fluorescence value (RLU) [1]: 85900 RLU
EC50 [6]: 0.0189 nM
EC50 [2]: 0.255 nM
MFI maximum value [2]: 7860 MFI
IC50 [3]: 0.35 nM
Maximum inhibition rate (%) [3]: 93%
IC50 [4]: 0.198 nM
Maximum inhibition rate (%) [4]: 47.2%
IC50 [5]: 0.539 nM
Maximum inhibition rate (%) [5]: 91.8%
B9: PR000066 (antibody, human IgG1, kappa, N297A, V domains shown)
VH: B1 VH with F106S, D107A, I108F
VL: B2 VL with D17H, V21I, Y30S, N45D, S65N
notes: fully human recombinant antibody, human IgG1 heavy chain, kappa light chain (IGKV1-5); also called 69B8G8C2

EC50 (nM), PD-1 / NFAT-luciferase reporter [1]: 0.603 nM
Maximum fluorescence value (RLU) [1]: 83300 RLU
EC50 [2]: 0.326 nM
MFI maximum value [2]: 7640 MFI
IC50 [3]: 0.288 nM
Maximum inhibition rate (%) [3]: 91.6%
IC50 [4]: 0.199 nM
Maximum inhibition rate (%) [4]: 35%
IC50 [5]: 0.853 nM
Maximum inhibition rate (%) [5]: 91.4%
B10: PR000068 (antibody, human IgG1, kappa, N297A, V domains shown)
VH: B1 VH with A101P, F106S
VL: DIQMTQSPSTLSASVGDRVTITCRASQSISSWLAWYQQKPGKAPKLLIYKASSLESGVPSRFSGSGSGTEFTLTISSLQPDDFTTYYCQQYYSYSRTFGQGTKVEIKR
notes: fully human recombinant antibody, human IgG1 heavy chain, kappa light chain (IGKV1-5); also called 82F8H7E1

EC50 [6]: 0.0343 nM
B11: PR000264 (antibody, human IgG1, kappa, N297A, V domains shown)
VH: B1 VH with G55A, Y94F, D107A
VL: B2 VL with V21I, K39H, N45K, T56S, Y87F, S94Y, K107R
notes: as for B5

EC50 [6]: 0.0321 nM
B12: PR000263 (antibody, human IgG1, kappa, N297A, V domains shown)
VH: B1 VH with D54E, Y94F, D107A
VL: B2 VL with V21I, K39H, N45K, T56S, Y87F, S94Y, K107R
notes: as for B5

EC50 (nM), PD-1 / NFAT-luciferase reporter [1]: 0.271 nM
Maximum fluorescence value (RLU) [1]: 83300 RLU
EC50 [6]: 0.0637 nM
EC50 [2]: 0.312 nM
MFI maximum value [2]: 7530 MFI
IC50 [3]: 0.313 nM
Maximum inhibition rate (%) [3]: 90.7%
IC50 [4]: 0.28 nM
Maximum inhibition rate (%) [4]: 33%
IC50 [5]: 0.836 nM
Maximum inhibition rate (%) [5]: 92.3%
B13: PR000069 (antibody, human IgG1, kappa, N297A, V domains shown)
VH: B1 VH with Y94F, D107A
VL: B2 VL with V21I, K39H, N45K, T56S, Y87F, S94Y, K107R
notes: fully human recombinant antibody, human IgG1 heavy chain, kappa light chain (IGKV1-5); also called 85C5E4G3

EC50 [6]: 0.0338 nM
B14: PR000262 (antibody, human IgG1, kappa, N297A, V domains shown)
VH: B1 VH with G55A, F106S, D107A, I108F
VL: B2 VL with D17H, V21I, Y30S, N45D
notes: PTM variant of PR000066 (H:G55A); heavy chain human IgG1 (N297A)

EC50 (nM), PD-1 / NFAT-luciferase reporter [7]: 0.796 nM
Maximum fluorescence value (RLU) [7]: 43000 RLU
EC50 [6]: 0.0462 nM
EC50 [8]: 0.775 nM
MFI maximum value [8]: 22400 MFI
IC50 [9]: 1.04 nM
Maximum inhibition rate (%) [9]: 91%
B15: PR000267 (antibody, human IgG1, kappa, N297A, V domains shown)
VH: B1 VH with D54E, V61G, D90E, F106S
VL: B2 VL with V21I, Y30S, I31S, S94Y
notes: as for B5

EC50 (nM), PD-1 / NFAT-luciferase reporter [1]: 0.533 nM
Maximum fluorescence value (RLU) [1]: 81600 RLU
EC50 [2]: 0.417 nM
MFI maximum value [2]: 7880 MFI
IC50 [3]: 0.313 nM
Maximum inhibition rate (%) [3]: 91.1%
IC50 [4]: 0.284 nM
Maximum inhibition rate (%) [4]: 35.9%
IC50 [5]: 0.938 nM
Maximum inhibition rate (%) [5]: 91.5%
B16: PR000064 (antibody, human IgG1, kappa, N297A, V domains shown)
VH: B1 VH
VL: B2 VL with A13T, V21I, Y30S, N45K, T56S, S94Y
notes: fully human recombinant antibody, human IgG1 heavy chain, kappa light chain (IGKV1-5); also called 63G11H3G9
